Values belong to the molecule of their own block, whether it stands above or below them. Ends that are not written are not given here.
Key:
guanylyl cyclase = assay: Detergent-solubilized membrane (particulate) guanylyl cyclase activity of transfected COS cells; type: biochemical, human; conditions: for guanylyl cyclase specific activity, fold higher than control cells: COS-2 cells, membrane fraction; for Guanylyl Cyclase Activity: Table 2, transfected COS-7 cells, mean ± standard deviation of triplicate determinations
Procedure: To examine the biochemical properties of the NPRB receptor, we constructed an expression vector in which the coding sequence was placed under the transcriptional control of the cytomegalovirus immediate-early promoter (Table 2). The vector pRK is disclosed in EP 307,247, published Mar. 15, 1989. The NPRB expression vector was transfected into […] in a transient expression assay and the detergent solubilized guanylyl cyclase activity of a membrane fraction was measured (Table 2). Cells transfected with the NPRB expression vector has about eleven-fold higher guanylyl cyclase specific activity that control cells, while cells transfected with an NPRA receptor expression vector^5 using pRK has a six-fold higher guanylyl cyclase specific activity. Specific binding of [^125 l]-human ANP (ANP) and [^125 l]-porcine BNP (pBNP) to transfected cells was determined in the presence of absence of unlabeled peptides.
COS-7 cells maintained in Dulbecco's modified Eagles' medium (DMEM) supplemented with 10% fetal calf serum were seeded at 5×10^6 cells per 100 mm plate (GC assay) or 1×10^5 per 35 mm plate (binding assay). Twelve house later, cells were transfected with control vector^5 (1 mg/ml) using DEAE-dextran. The vector pRK-NPRBR contained nucleotides 253 to 3470 (FIG. 1) of the NPRB receptor in the expression vector pRK5 under the control of the cytomegalovirus immediate early promoter.
Guanylate cyclase activity was determined forty-eight hours after transfection, the cells were washed with phosphate buffer saline (PBS), scraped into 4 ml PBS and homogenized with 40 strokes of a Dounce homogenizer at 0° C. Nuclei were pelleted and the supernatant was centrifuged at 100,000 xg for 30 minutes in SW 55- Ti rotor to obtain a membrane pellet. Membrane proteins were solubilized by incubation or ice for 10 minutes in solution containing 20 mM Hepes, pH 7.4, 200 mM NaCl, 10% glycerol, 1% Triton X-100 and 1 mM dithiothreitol. Protein concentrations were measured by a dye binding assay (BioRad). Gyanylate cyclase reactions contained […] of membrane proteins in […] of 20 mM Hepes pH 7.4, 30 units of creatine phosphokinase, 1 mM GTP, 4 mM MnCl2 and 0.5 mM isobutyl methylxanthine (IBMX). After incubation at 37° C. for 10 minutes the reaction was stopped by addition of […] of 50 mM acetic acid (pH 6.2) and boiled for 3 min. Aliquots were analyzed for cGMP after acetylation with 1/20 volume of acetic anhydride/triethylamine (1:2) then radioimmuno-assay (Biomedical Technologies, Inc.). Results are expressed in Table 2 as the mean±standard deviation of triplicate determinations.

NPRB [1] = target: T1, NPRB (Homo sapiens, UniProt P20594); assay: Specific binding to COS-7 cells transfected with pRK-NPRB; conditions: Table 2, 0.5 nM, room temperature, 1 hr
T1 construct: whole cells or solubilized membranes
T1 sequence (P20594 23-1047): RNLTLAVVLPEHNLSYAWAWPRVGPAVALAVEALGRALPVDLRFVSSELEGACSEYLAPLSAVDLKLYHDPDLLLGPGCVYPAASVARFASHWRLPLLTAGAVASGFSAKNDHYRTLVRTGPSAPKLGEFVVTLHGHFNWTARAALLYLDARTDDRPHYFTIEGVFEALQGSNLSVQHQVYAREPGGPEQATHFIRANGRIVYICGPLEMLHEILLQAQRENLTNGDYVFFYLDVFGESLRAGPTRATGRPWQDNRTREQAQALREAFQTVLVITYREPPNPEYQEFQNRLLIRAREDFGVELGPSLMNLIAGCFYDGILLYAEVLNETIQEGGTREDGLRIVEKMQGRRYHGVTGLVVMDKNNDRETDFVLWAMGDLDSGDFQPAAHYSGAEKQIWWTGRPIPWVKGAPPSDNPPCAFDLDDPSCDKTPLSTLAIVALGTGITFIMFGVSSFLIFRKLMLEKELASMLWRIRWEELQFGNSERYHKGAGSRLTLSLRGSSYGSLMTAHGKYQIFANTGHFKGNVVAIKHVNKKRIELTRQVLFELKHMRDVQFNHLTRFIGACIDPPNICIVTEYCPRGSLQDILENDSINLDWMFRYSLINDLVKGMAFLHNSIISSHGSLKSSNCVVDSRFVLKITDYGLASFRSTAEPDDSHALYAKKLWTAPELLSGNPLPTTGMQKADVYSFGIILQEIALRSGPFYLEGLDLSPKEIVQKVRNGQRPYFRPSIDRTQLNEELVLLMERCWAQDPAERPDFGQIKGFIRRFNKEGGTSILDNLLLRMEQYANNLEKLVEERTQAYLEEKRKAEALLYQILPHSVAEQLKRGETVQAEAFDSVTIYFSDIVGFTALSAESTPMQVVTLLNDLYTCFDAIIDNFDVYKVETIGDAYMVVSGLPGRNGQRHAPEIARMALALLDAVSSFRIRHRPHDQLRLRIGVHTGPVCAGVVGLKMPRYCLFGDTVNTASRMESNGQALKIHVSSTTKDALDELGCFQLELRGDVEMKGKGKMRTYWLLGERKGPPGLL
Procedure: (§1) To examine the biochemical properties of the NPRB receptor, we constructed an expression vector in which the coding sequence was placed under the transcriptional control of the cytomegalovirus immediate-early promoter (Table 2). […] The NPRB expression vector was transfected into COS-2 cells in a transient expression assay and the detergent solubilized guanylyl cyclase activity of a membrane fraction was measured (Table 2). […] Specific binding of [^125 l]-human ANP (ANP) and [^125 l]-porcine BNP (pBNP) to transfected cells was determined in the presence of absence of unlabeled peptides.
(§2) COS-7 cells maintained in Dulbecco's modified Eagles' medium (DMEM) supplemented with 10% fetal calf serum were seeded at 5×10^6 cells per 100 mm plate (GC assay) or 1×10^5 per 35 mm plate (binding assay). Twelve house later, cells were transfected with control vector^5 (1 mg/ml) using DEAE-dextran.
(§3) Following the incubation, cells were rinsed with cold PBS, and dissolved in 2 ml of 0.2M NaOH and radioactivity was measured in gamma counter. All measurements were in triplicate. […] Specific binding in table 2 was calculated by subtracting the background binding from the total binding.

NPRA = target: T2, NPRA (Homo sapiens, UniProt P16066); assay: Specific binding to COS-7 cells transfected with pRK-NPRA; conditions: Table 2, 0.5 nM, room temperature, 1 hr
T2 construct: whole cells or solubilized membranes
T2 sequence (P16066 33-1061): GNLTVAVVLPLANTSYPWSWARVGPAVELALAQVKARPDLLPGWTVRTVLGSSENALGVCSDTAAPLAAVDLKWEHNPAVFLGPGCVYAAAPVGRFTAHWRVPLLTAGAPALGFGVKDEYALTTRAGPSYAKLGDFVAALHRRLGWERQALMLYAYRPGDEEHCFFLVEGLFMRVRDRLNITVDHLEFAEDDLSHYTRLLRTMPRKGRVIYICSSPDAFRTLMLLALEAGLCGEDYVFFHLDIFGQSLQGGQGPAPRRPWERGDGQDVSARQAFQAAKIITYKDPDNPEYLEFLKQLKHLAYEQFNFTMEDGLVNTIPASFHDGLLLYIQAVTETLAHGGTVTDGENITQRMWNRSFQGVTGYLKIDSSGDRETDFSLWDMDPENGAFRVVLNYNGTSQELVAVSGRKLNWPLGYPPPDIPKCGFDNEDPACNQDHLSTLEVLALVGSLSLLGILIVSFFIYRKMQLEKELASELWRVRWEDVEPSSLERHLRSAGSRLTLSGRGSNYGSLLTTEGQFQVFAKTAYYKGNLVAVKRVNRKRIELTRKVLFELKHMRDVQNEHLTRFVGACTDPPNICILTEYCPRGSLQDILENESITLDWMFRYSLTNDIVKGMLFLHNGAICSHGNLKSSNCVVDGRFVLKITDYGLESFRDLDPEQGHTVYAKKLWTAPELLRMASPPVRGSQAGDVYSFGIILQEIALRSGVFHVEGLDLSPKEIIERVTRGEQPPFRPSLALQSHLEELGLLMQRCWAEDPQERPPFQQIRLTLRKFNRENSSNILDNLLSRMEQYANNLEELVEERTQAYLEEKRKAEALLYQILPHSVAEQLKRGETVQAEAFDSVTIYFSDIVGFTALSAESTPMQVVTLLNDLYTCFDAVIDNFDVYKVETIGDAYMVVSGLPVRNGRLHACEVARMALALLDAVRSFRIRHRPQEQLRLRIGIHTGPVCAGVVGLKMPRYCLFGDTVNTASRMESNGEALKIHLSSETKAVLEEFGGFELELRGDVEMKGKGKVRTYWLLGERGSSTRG
Procedure: as §1, §2, §3

NPRB [2] = target: T1, NPRB; assay: Transient expression whole-cell stimulation of cGMP production, NPRB-transfected COS-7 cells; type: cell-based
Procedure: Ligand-dependent activation of the cytoplasmic guanylyl cyclase (GC) domains of the human NPRB and NPRA receptors was examined in transient expression whole-cell stimulation assays. In FIG. 3, the natriuretic peptide stimulation of cGMP production is shown. COS-7 cells transfected with pRK (control; pane C), human NPRA expression vector^5 (panel A), or human NPRB receptor expression vector (panel B) were either not treated (panel C) or stimulated with 500 nM porcine BNP (BNP) or human ANP (ANP) for 5 minutes. Results are expressed as the mean amount of cGMP (pmoles) per culture±standard deviation for 3 independent determinations.
The COS-7 cells were seeded at a density of 1×10^6 cells per well in a 60 mm plate with high glucose DMEM plus 10% heat inactivated dialyzed calf serum and maintained for 12 hours at 37° C. in 7%, 93% air. […] of plasmid DNA was transfected with […] of DEAE-dextran in 2 ml of high glucose DMEM±10% Nuserum (Gibco) for 4 hours. Cells were shocked with 20% glycerol in PBS for 1 minute, fresh medium was added and cells were maintained for 72 hours prior to stimulation. Non-treated cultures were incubated at 37° C. in DMEM with 25 mM Hepes pH 7.2, […] IBMX at 37° C. for 10 minutes, medium was aspirated and 6% trichloroacetic acid (TCA) was added. Stimulated samples were treated for an additional 5 minutes in the presence of 500 nM peptide before TCA treatment. Samples were frozen at -20° C. for 1 hr, thawed at room temperature, and cell debris was removed by centrifugation at 2500 xg for 10 minutes. Samples were extracted once with 4 volumes of water-saturated ether, briefly evaporated and assayed for cGMP as described in Table 2.

Molecule: NPRA: 120-140 kd NPRA receptor, a membrane form of guanylyl cyclase
- guanylyl cyclase specific activity, fold higher than control cells (guanylyl cyclase): six
- Guanylyl Cyclase Activity (guanylyl cyclase): 1.91 ± 0.01 pmole cGMP/min/mg protein

Molecule: [^125 l]-ANP: [^125 l]-human ANP (1800 Ci/mmole, Amersham)
- Specific Binding of [^125 l]-ANP (NPRB [1]): 10,694 ± 1412 cpm

- Specific Binding of [^125 l]-pBNP (NPRA): 5,721 ± 1107 cpm
- Specific Binding of [^125 l]-pBNP (NPRB [1]): 3,643 ± 26 cpm
Molecule: [^125 l]-pBNP: [^125 l]-porcine BNP (600 Ci/mmol) (DSGCFGRRLDRIGSLSGLGCNVLRRY; ends and bridges not checked; also: 125I label, position not given here; UniProt P07634 106-131, looked up)

Molecule: pBNP: porcine BNP (brain natriuretic peptide) (DSGCFGRRLDRIGSLSGLGCNVLRRY; ends and bridges not checked; cysteine pairing not given here; UniProt P07634 106-131, looked up)
- fold increase in cGMP over control transfected cells (NPRB [2]; NPRB, 500 nM peptide, 5 minutes): 9.7 fold
- fold more effective than ANP in the activation of NPRB GC activity (NPRB [2]; NPRB, 500 nM peptide, 5 minutes, versus ANP): 6.4 fold
- activation of NPRB receptor (in words) (NPRB [2]; pBNP as compared to human ANP): preferentially activated

B1: NPRB: human natriuretic peptide receptor B having the sequence of FIG. 1, expressed from pRK vector (protein, UniProt P20594 23-1047, looked up)
Atrial natriuretic peptide …: RNLTLAVVLPEHNLSYAWAWPRVGPAVALAVEALGRALPVDLRFVSSELEGACSEYLAPLSAVDLKLYHDPDLLLGPGCVYPAASVARFASHWRLPLLTAGAVASGFSAKNDHYRTLVRTGPSAPKLGEFVVTLHGHFNWTARAALLYLDARTDDRPHYFTIEGVFEALQGSNLSVQHQVYAREPGGPEQATHFIRANGRIVYICGPLEMLHEILLQAQRENLTNGDYVFFYLDVFGESLRAGPTRATGRPWQDNRTREQAQALREAFQTVLVITYREPPNPEYQEFQNRLLIRAREDFGVELGPSLMNLIAGCFYDGILLYAEVLNETIQEGGTREDGLRIVEKMQGRRYHGVTGLVVMDKNNDRETDFVLWAMGDLDSGDFQPAAHYSGAEKQIWWTGRPIPWVKGAPPSDNPPCAFDLDDPSCDKTPLSTLAIVALGTGITFIMFGVSSFLIFRKLMLEKELASMLWRIRWEELQFGNSERYHKGAGSRLTLSLRGSSYGSLMTAHGKYQIFANTGHFKGNVVAIKHVNKKRIELTRQVLFELKHMRDVQFNHLTRFIGACIDPPNICIVTEYCPRGSLQDILENDSINLDWMFRYSLINDLVKGMAFLHNSIISSHGSLKSSNCVVDSRFVLKITDYGLASFRSTAEPDDSHALYAKKLWTAPELLSGNPLPTTGMQKADVYSFGIILQEIALRSGPFYLEGLDLSPKEIVQKVRNGQRPYFRPSIDRTQLNEELVLLMERCWAQDPAERPDFGQIKGFIRRFNKEGGTSILDNLLLRMEQYANNLEKLVEERTQAYLEEKRKAEALLYQILPHSVAEQLKRGETVQAEAFDSVTIYFSDIVGFTALSAESTPMQVVTLLNDLYTCFDAIIDNFDVYKVETIGDAYMVVSGLPGRNGQRHAPEIARMALALLDAVSSFRIRHRPHDQLRLRIGVHTGPVCAGVVGLKMPRYCLFGDTVNTASRMESNGQALKIHVSSTTKDALDELGCFQLELRGDVEMKGKGKMRTYWLLGERKGPPGLL
- guanylyl cyclase specific activity, fold higher than control cells (guanylyl cyclase): about eleven
- Guanylyl Cyclase Activity (guanylyl cyclase): 3.50 ± 0.01 pmole cGMP/min/mg protein
